In patent US11702475B2, “Cysteine engineered fibronectin type III domain binding molecules” (Janssen Biotech, Inc., priority 2013, dated 2023):

Key:
NCI-H322 cells = assay: NCI-H322 growth assay; format: cell-based, human; conditions: 120 hours, CellTiter-Glo
Description: (§1) Inhibition of EGFR-dependent cell growth was assessed by measuring viability of the EGFR over-expressing human tumor cell lines, NCI-H292 and NCI-H322 (American Type Culture Collection, cat. #CRL-1848 & #CRL-5806, respectively), following exposure to EGFR-binding FN3 domains. Cells were plated at 500 cells/well (NCI-H292) or 1,000 cells/well (NCI-H322) in opaque white 96-well tissue culture-treated plates (Nunc) in 1004/well of RPMI medium (Gibco) containing GlutaMAX™ and 10 mM HEPES, supplemented with 10% heat inactivated fetal bovine serum (Gibco) and 1% penicillin/streptomycin (Gibco), and allowed to attach overnight at 37° C. in a humidified 5% CO2 atmosphere. Cells were treated by addition of 54/well of phosphate-buffered saline (PBS) containing a concentration range of EGFR-binding FN3 domains. […] Viable cells were detected by addition of 754/well of CellTiter-Glo® reagent (Promega), followed by mixing on a plate shaker for 2 minutes, and incubation in the dark at room temperature for a further 10 minutes. Plates were read on a SpectraMax M5 plate reader (Molecular Devices) set to luminescence mode, with a read time of 0.5 seconds/well against a blank of medium only. […] IC50 values were determined by fitting data to the equation for a sigmoidal dose response with variable slope using GraphPad Prism 4 (GraphPad Software).

[1] = target: T1, EGFR-Fc (recombinant human extracellular domain of EGFR fused to an IgG1 Fc) (Homo sapiens, UniProt P00533); assay: Affinity of FN3 domains to EGFR-Fc by surface plasmon resonance (ProteOn), incl. off-rate screen; format: binding; conditions: SPR ProteOn, 1:1 Langmuir fit
T1 construct: purchased R&D Systems
Description: Select EGFR-binding FN3 domains were screened to identify those with slow off-rates (koff) in binding to EGFR-Fc on a ProteOn XPR-36 instrument (Bio-Rad) to facilitate selection of high affinity binders. Goat anti-human Fc IgG (R&D systems), at a concentration of 5 μg/mL, was directly immobilized via amine coupling (at pH 5.0) on all 6 ligand channels in horizontal orientation on the chip with a flow rate of 30 μL/min in PBS containing 0.005% Tween-20. The immobilization densities averaged about 1500 Response Units (RU) with less than 5% variation among different channels. EGFR-Fc was captured on the anti-human Fc IgG surface to a density around 600 RU in vertical ligand orientation. All tested FN3 domains were normalized to a concentration of 1 μM and tested for their binding in horizontal orientation. […] The dissociation phase was monitored for 10 minutes at a flow rate of 100 μL/min. […]
Binding affinity of selected EGFR-binding FN3 domains to recombinant EGFR extracellular domain was further characterized by surface Plasmon resonance methods using a Proteon Instrument (BioRad). […] The dissociation phase for all concentrations of each EGFR-binding FN3 domain was monitored at a flow rate of 100 μL/min for 30 minutes (for those with koff˜10^−2 s^−1 from off-rate screening), or 1 hour (for those with koff˜10^−3 s^−1 or slower). […]

NCI-H292 cells = assay: NCI-H292 growth assay; format: cell-based, human; conditions: 120 hours, CellTiter-Glo
Description: as §1

[2] = target: T2, EGFR on A431 cells (EGF binding) (Homo sapiens, UniProt P00533); assay: A431 cell EGF competition assay; conditions: biotinylated EGF 30 ng/mL
T2 construct: A431 cells (American Type Culture Collection, cat. #CRL-1555) over-express EGFR; host or cells: A431
Description: To better characterize the mechanism of EGFR binding, the ability of various identified FN3 domain clones to bind EGFR in an EGF-competitive manner was measured using A431 cells and run in parallel with the A431 binding assay screen. A431 cells were plated at 5,000/well in opaque black 96-well plates and allowed to attach overnight at 37° C., in a humidified 5% CO2 atmosphere. Cells were incubated with 50 μL/well of 1:1,000 diluted bacterial lysate for 1 hour at room temperature in triplicate plates. Biotinylated EGF (Invitrogen, cat. #E-3477) was added to each well to give a final concentration of 30 ng/mL and incubated for 10 minutes at room temperature. Cells were washed 3 times with 150 μL/well of FACS stain buffer. […] Cells were washed 3 times with 150 μL/well of FACS stain buffer, after which wells were filled with 100 μL of FACS stain buffer and read for fluorescence at 600 nm using an Acumen eX3 reader.
A431 cells were plated at 5,000/well in opaque black 96-well plates and allowed to attach overnight at 37° C., in a humidified 5% CO2 atmosphere. […] Cells were washed 3 times with 150 μL/well of FACS stain buffer, after which wells were filled with 100 μL of FACS stain buffer and read for fluorescence at 600 nm using an Acumen eX3 reader. […]

- IC50 (NCI-H322 cells): 39 nM
- Kd [1]: 2.51 nM
- IC50 (NCI-H292 cells): 44 nM
- IC50 [2]: 7.1 nM
B1: P54AR4-47: EGFR-binding FN3 domain, SEQ ID NO: 20 (protein)
chain: LPAPKNLVVSEVTEDSLRLSWGYNGDHFDSFLIQYQESEKVGEAINLTVPGSERSYDLTGLKPGTEYTVSIYGVHNVYKDTNMRGLPLSAEFTT
modifications: EGFR binding FN3 domain
